Starred links: 1 amine or outer side, 2 acyl side, 3 side chain; linkers in the order of their positions; H or OH if unused. Non-standard residues stand in square brackets, D forms with d. No end group written: not given here. *: point of attachment. Trp(7-Me) = Cc1cccc2c(C[C@H](N)C(=O)O)c[nH]c12; C20 diacid = O=C(O)CCCCCCCCCCCCCCCCCCC(=O)*; d(γGlu) = O=C(O)[C@@H](CCC(=O)[*:2])N[*:1]; C18 diacid = O=C(O)CCCCCCCCCCCCCCCCC(=O)*; γGlu = O=C(O)[C@H](CCC(=O)[*:2])N[*:1]; Palmitoyl = CCCCCCCCCCCCCCCC(=O)*; 3Pal = N[C@@H](Cc1cccnc1)C(=O)O; Nle = CCCC[C@H](N)C(=O)O; AEEA = NCCOCCOCC(=O)O; Aib = CC(C)(N)C(=O)O; βAla = NCCC(=O)O
Target: human GRP receptor (human, UniProt P30550 1-384)
Experiment: cell-based or functional assay

Sequence of human GRP receptor (P30550 whole entry): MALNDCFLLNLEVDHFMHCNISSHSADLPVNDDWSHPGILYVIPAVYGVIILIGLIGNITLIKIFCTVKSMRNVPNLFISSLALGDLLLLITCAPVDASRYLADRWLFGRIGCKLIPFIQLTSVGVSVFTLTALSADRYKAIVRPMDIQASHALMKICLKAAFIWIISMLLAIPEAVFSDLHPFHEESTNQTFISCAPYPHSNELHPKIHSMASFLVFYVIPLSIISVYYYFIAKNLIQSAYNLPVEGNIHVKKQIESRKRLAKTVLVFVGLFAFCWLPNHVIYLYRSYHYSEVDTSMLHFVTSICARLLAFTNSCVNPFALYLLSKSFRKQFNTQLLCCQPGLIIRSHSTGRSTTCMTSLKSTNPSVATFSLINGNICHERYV

hIP1 GRPR EC50 [nM] | Binder
248 | {C18 diacid}-[γGlu][AEEA][AEEA]GRHWAV[dA]HL[Nle] [Peptide 166]
125 | {C20 diacid}-[γGlu]GNHWAV[dA]HL[Nle] [Peptide 164]
19.6 | {C20 diacid}-[γGlu]GRHWAV[dA]HL[Nle] [Peptide 162]
3.9 | {C20 diacid}-[γGlu][AEEA][AEEA]GRH[Trp(7-Me)]AV[βAla]HL[Nle]-NH2 (SMILES CCCC[C@H](NC(=O)[C@H](CC(C)C)NC(=O)[C@H](Cc1c[nH]cn1)NC(=O)CCNC(=O)[C@@H](NC(=O)[C@H](C)NC(=O)[C@H](Cc1c[nH]c2c(C)cccc12)NC(=O)[C@H](Cc1c[nH]cn1)NC(=O)[C@H](CCCNC(=N)N)NC(=O)CNC(=O)COCCOCCNC(=O)COCCOCCNC(=O)CC[C@H](NC(=O)CCCCCCCCCCCCCCCCCCC(=O)O)C(=O)O)C(C)C)C(N)=O) [Peptide 242]
21.4 | {C18 diacid}-[γGlu][AEEA][AEEA][dF]QHWAV[dA]HL[Nle]-NH2 (SMILES CCCC[C@H](NC(=O)[C@H](CC(C)C)NC(=O)[C@H](Cc1c[nH]cn1)NC(=O)[C@@H](C)NC(=O)[C@@H](NC(=O)[C@H](C)NC(=O)[C@H](Cc1c[nH]c2ccccc12)NC(=O)[C@H](Cc1c[nH]cn1)NC(=O)[C@H](CCC(N)=O)NC(=O)[C@@H](Cc1ccccc1)NC(=O)COCCOCCNC(=O)COCCOCCNC(=O)CC[C@H](NC(=O)CCCCCCCCCCCCCCCCC(=O)O)C(=O)O)C(C)C)C(N)=O) [Peptide 161]
114 | {C20 diacid}-[γGlu][AEEA][AEEA]GRHWAV[dA]HL[Nle] [Peptide 167]
11.9 | EEXXGNHWAVGHLX (Palmitoyl-γGlu-γGlu-OEG-OEG-Gly-Asn-His-Trp-Ala-Val-Gly-His-Leu-Nle-NH2) [Peptide 240]
2 | {C20 diacid}-[γGlu][AEEA][AEEA]GQHWAV[βAla]HL[Nle]-NH2 (SMILES CCCC[C@H](NC(=O)[C@H](CC(C)C)NC(=O)[C@H](Cc1c[nH]cn1)NC(=O)CCNC(=O)[C@@H](NC(=O)[C@H](C)NC(=O)[C@H](Cc1c[nH]c2ccccc12)NC(=O)[C@H](Cc1c[nH]cn1)NC(=O)[C@H](CCC(N)=O)NC(=O)CNC(=O)COCCOCCNC(=O)COCCOCCNC(=O)CC[C@H](NC(=O)CCCCCCCCCCCCCCCCCCC(=O)O)C(=O)O)C(C)C)C(N)=O) [Peptide 241]
1.55 | {C20 diacid}-[γGlu]GQHWAV[dA]HL[Nle]-NH2 (SMILES CCCC[C@H](NC(=O)[C@H](CC(C)C)NC(=O)[C@H](Cc1c[nH]cn1)NC(=O)[C@@H](C)NC(=O)[C@@H](NC(=O)[C@H](C)NC(=O)[C@H](Cc1c[nH]c2ccccc12)NC(=O)[C@H](Cc1c[nH]cn1)NC(=O)[C@H](CCC(N)=O)NC(=O)CNC(=O)CC[C@H](NC(=O)CCCCCCCCCCCCCCCCCCC(=O)O)C(=O)O)C(C)C)C(N)=O) [Peptide 165]
88.5 | {C20 diacid}-[γGlu]RRHWAV[dA]HL[Nle] [Peptide 163]

The next lines start with the binder.

Binder | hIP1 GRPR EC50 [nM]
{C20 diacid}-[γGlu][AEEA][AEEA]GQHWAV[dA]HL[Nle]-NH2 (SMILES CCCC[C@H](NC(=O)[C@H](CC(C)C)NC(=O)[C@H](Cc1c[nH]cn1)NC(=O)[C@@H](C)NC(=O)[C@@H](NC(=O)[C@H](C)NC(=O)[C@H](Cc1c[nH]c2ccccc12)NC(=O)[C@H](Cc1c[nH]cn1)NC(=O)[C@H](CCC(N)=O)NC(=O)CNC(=O)COCCOCCNC(=O)COCCOCCNC(=O)CC[C@H](NC(=O)CCCCCCCCCCCCCCCCCCC(=O)O)C(=O)O)C(C)C)C(N)=O) [Peptide 151] | 2.92
{C18 diacid}-[γGlu][AEEA][AEEA]QHWAV[βAla]HL[Nle]-NH2 (SMILES CCCC[C@H](NC(=O)[C@H](CC(C)C)NC(=O)[C@H](Cc1c[nH]cn1)NC(=O)CCNC(=O)[C@@H](NC(=O)[C@H](C)NC(=O)[C@H](Cc1c[nH]c2ccccc12)NC(=O)[C@H](Cc1c[nH]cn1)NC(=O)[C@H](CCC(N)=O)NC(=O)COCCOCCNC(=O)COCCOCCNC(=O)CC[C@H](NC(=O)CCCCCCCCCCCCCCCCC(=O)O)C(=O)O)C(C)C)C(N)=O) [Peptide 152] | 3.9
{C20 diacid}-[γGlu]RNHWAV[dA]HL[Nle] [Peptide 155] | 132
{C20 diacid}-[γGlu]RNHWAV[dA]HL[Nle]-NH2 (SMILES CCCC[C@H](NC(=O)[C@H](CC(C)C)NC(=O)[C@H](Cc1c[nH]cn1)NC(=O)[C@@H](C)NC(=O)[C@@H](NC(=O)[C@H](C)NC(=O)[C@H](Cc1c[nH]c2ccccc12)NC(=O)[C@H](Cc1c[nH]cn1)NC(=O)[C@H](CC(N)=O)NC(=O)[C@H](CCCNC(=N)N)NC(=O)CC[C@H](NC(=O)CCCCCCCCCCCCCCCCCCC(=O)O)C(=O)O)C(C)C)C(N)=O) [Peptide 154] | 7.09
Palmitoyl-[d(γGlu)][AEEA][AEEA]GNH[Trp(7-Me)][Aib]V[dA]HL[Nle]-NH2 (SMILES CCCCCCCCCCCCCCCC(=O)N[C@H](CCC(=O)NCCOCCOCC(=O)NCCOCCOCC(=O)NCC(=O)N[C@@H](CC(N)=O)C(=O)N[C@@H](Cc1c[nH]cn1)C(=O)N[C@@H](Cc1c[nH]c2c(C)cccc12)C(=O)NC(C)(C)C(=O)N[C@H](C(=O)N[C@H](C)C(=O)N[C@@H](Cc1c[nH]cn1)C(=O)N[C@@H](CC(C)C)C(=O)N[C@@H](CCCC)C(N)=O)C(C)C)C(=O)O) [Peptide 14] | 10.8
{C18 diacid}-[γGlu][AEEA][AEEA]GNHWAV[dA][dH]L[Nle]-NH2 (SMILES CCCC[C@H](NC(=O)[C@H](CC(C)C)NC(=O)[C@@H](Cc1c[nH]cn1)NC(=O)[C@@H](C)NC(=O)[C@@H](NC(=O)[C@H](C)NC(=O)[C@H](Cc1c[nH]c2ccccc12)NC(=O)[C@H](Cc1c[nH]cn1)NC(=O)[C@H](CC(N)=O)NC(=O)CNC(=O)COCCOCCNC(=O)COCCOCCNC(=O)CC[C@H](NC(=O)CCCCCCCCCCCCCCCCC(=O)O)C(=O)O)C(C)C)C(N)=O) [Peptide 159] | 101
{C18 diacid}-[γGlu][AEEA][AEEA]RRHWAV[dA]HL[Nle] [Peptide 157] | 161
{C20 diacid}-[γGlu]RRHWAV[dA]HL[Nle]-NH2 (SMILES CCCC[C@H](NC(=O)[C@H](CC(C)C)NC(=O)[C@H](Cc1c[nH]cn1)NC(=O)[C@@H](C)NC(=O)[C@@H](NC(=O)[C@H](C)NC(=O)[C@H](Cc1c[nH]c2ccccc12)NC(=O)[C@H](Cc1c[nH]cn1)NC(=O)[C@H](CCCNC(=N)N)NC(=O)[C@H](CCCNC(=N)N)NC(=O)CC[C@H](NC(=O)CCCCCCCCCCCCCCCCCCC(=O)O)C(=O)O)C(C)C)C(N)=O) [Peptide 158] | 1.68
{C20 diacid}-[γGlu]GNHWAV[dA][dH]L[Nle]-NH2 (SMILES CCCC[C@H](NC(=O)[C@H](CC(C)C)NC(=O)[C@@H](Cc1c[nH]cn1)NC(=O)[C@@H](C)NC(=O)[C@@H](NC(=O)[C@H](C)NC(=O)[C@H](Cc1c[nH]c2ccccc12)NC(=O)[C@H](Cc1c[nH]cn1)NC(=O)[C@H](CC(N)=O)NC(=O)CNC(=O)CC[C@H](NC(=O)CCCCCCCCCCCCCCCCCCC(=O)O)C(=O)O)C(C)C)C(N)=O) [Peptide 160] | 31.5
Palmitoyl-[d(γGlu)][AEEA][AEEA]GN[3Pal]WAV[dA]HL[Nle]-NH2 (SMILES CCCCCCCCCCCCCCCC(=O)N[C@H](CCC(=O)NCCOCCOCC(=O)NCCOCCOCC(=O)NCC(=O)N[C@@H](CC(N)=O)C(=O)N[C@@H](Cc1cccnc1)C(=O)N[C@@H](Cc1c[nH]c2ccccc12)C(=O)N[C@@H](C)C(=O)N[C@H](C(=O)N[C@H](C)C(=O)N[C@@H](Cc1c[nH]cn1)C(=O)N[C@@H](CC(C)C)C(=O)N[C@@H](CCCC)C(N)=O)C(C)C)C(=O)O) [Peptide 12] | 1.8
{C20 diacid}-[γGlu]GRHWAV[dA]HL[Nle]-NH2 (SMILES CCCC[C@H](NC(=O)[C@H](CC(C)C)NC(=O)[C@H](Cc1c[nH]cn1)NC(=O)[C@@H](C)NC(=O)[C@@H](NC(=O)[C@H](C)NC(=O)[C@H](Cc1c[nH]c2ccccc12)NC(=O)[C@H](Cc1c[nH]cn1)NC(=O)[C@H](CCCNC(=N)N)NC(=O)CNC(=O)CC[C@H](NC(=O)CCCCCCCCCCCCCCCCCCC(=O)O)C(=O)O)C(C)C)C(N)=O) [Peptide 153] | 2.87
{C18 diacid}-[γGlu][AEEA][AEEA]RNHWAV[dA]HL[Nle] [Peptide 156] | 358
Palmitoyl-[d(γGlu)][AEEA][AEEA]GNH[Trp(7-Me)]AV[dA]HL[Nle]-NH2 (SMILES CCCCCCCCCCCCCCCC(=O)N[C@H](CCC(=O)NCCOCCOCC(=O)NCCOCCOCC(=O)NCC(=O)N[C@@H](CC(N)=O)C(=O)N[C@@H](Cc1c[nH]cn1)C(=O)N[C@@H](Cc1c[nH]c2c(C)cccc12)C(=O)N[C@@H](C)C(=O)N[C@H](C(=O)N[C@H](C)C(=O)N[C@@H](Cc1c[nH]cn1)C(=O)N[C@@H](CC(C)C)C(=O)N[C@@H](CCCC)C(N)=O)C(C)C)C(=O)O) [Peptide 13] | 1.08

— patent US20260176319A1 (KALLYOPE, published 2026)
